Results taken from the supplement of paper PMC10567573.

B1: ZNF232 (parent)
chain: HSGEKPFICKECGKAYGWCSELIR
B2: FUT8 (parent)
chain: YPSYKVREKIETVKYPTYPEAEK

Variants of: B1
Test: protein stability index of a GFP-peptide fusion (GPS, HEK-293T) (PSI 1-6); higher = more stable
Conditions: c terminus: a fixed tail appended
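Further: lentivirally expressed fusions sorted by FACS into six bins by GFP to DsRed ratio, PSI derived from sequencing read proportions per bin multiplied by bin number.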

Protein stability index of substitutions, site by site:
H1: G 2.55, E 2.4, L 1.9, N 2.15, K 2.12, D 2.31, A 1.89, F 2.76, I 2.21, C 1.61, M 1.16

Variants of: B2
Test: as above
Conditions: c terminus: native

Protein stability index: each site, then its substitutions
E8: I 2.62, Y 2.28, F 2.02, R 3.74, P 3.72, A 3.96, H 4.28, W 2.13, G 3.92, M 2.69, V 1.75, T 3.43, K 3.59, N 4.27, C 2.62, S 3.57, D 4.26, Q 4.01, L 1.99
V13: W 3.04, R 4.34, I 4.29, P 4.24, L 4.29, F 3.77, A 4.7, N 4.26, G 4.66, Q 4.49, T 4.18, S 4.69, K 4.62, E 4.79, D 4.64, C 4.12, H 3.97, Y 3.72, M 3.7
E11: S 4.07, I 3.34, M 3.46, K 4.32, Y 3.44, P 4.12, H 3.8, N 3.1, V 3.59, Q 4.27, G 3.59, T 3.5, L 4.01, F 3.15, C 3.91, A 4.3
I10: W 2.87, R 4.56, Q 4.17, M 4.35, K 4.57, C 4.21, P 4.09, H 4.27, L 4.28, V 4.46, E 4.61, N 4.87, Y 4.29, D 4.71, T 4.97, A 4.19, S 4.46, F 4.36
K23: C 3.19, F 3.68, G 3.96, W 2.53, D 4.61, N 3.95, R 1.82, Y 2.9, P 3.88, A 2.92, L 3, Q 4.04, T 3.36, E 1.93, I 4.41, V 3.4, M 2.94, S 3.46, H 4.15
Y15: W 2.88, A 3.39, Q 4.77, I 4.58, R 4.22, E 4.59, M 4.48, T 3.77, K 5.03, S 4.64, D 5.2, L 4.33, P 4.45, H 4.72, V 4.18, C 3.88, G 4.85, F 4.49
T12: F 3.06, Q 4.94, R 4.05, N 3.62, C 4.17, H 3.25, Y 4.15, G 4.01, W 3.21, A 3.92, S 3.91, D 4.57, L 3.14, P 4.49, K 4.71, V 2.14, E 4.33
R7: F 2.52, Y 3.6, N 4.59, G 4.7, K 4.16, T 3.96, P 4.67, C 3.76, L 4.48, W 2.79, M 4.48, V 3.85, S 4.49, H 3.84, E 4.7, I 3.73, Q 4.45, D 4.67, A 4.54
P19: S 3.94, A 3.79, R 3.71, T 3.45, D 3.66, E 4.67, V 2.98, C 3, Y 1.25, M 3.04, N 4.11, G 3.94, I 3.59, H 3.18, F 2.01, K 4.19, Q 3.85, W 2.37
V6: I 3.89, S 4.48, N 4.62, T 4.25, L 4.69, R 4.36, K 4.55, H 4.58, P 4.62, M 3.86, Y 4.15, Q 4.13
E22: W 2.91, P 4.46, M 3.45, D 4.31, T 3.32, K 4.54, C 1.66, R 4.2, I 2.17, F 4.11, Q 4.44, L 1.97, Y 2.93, S 4.04, H 4.28, V 1.9, A 3.28, N 4.36
K9: A 4.31, I 3.1, T 4.44, N 4.38, L 2.91, D 4.14, S 4.28, C 4.43, P 4.74, G 4.12, R 3.98, M 4.24, F 2.64, Y 2.56, W 1.99, H 3.62, E 4.5, V 3.23, Q 4.25
K14: C 4.18, I 3.88, E 4.03, Q 4.21, R 4.27, L 2.97, G 4.98, A 4.17, F 2.73, N 4.62, Y 3.43, H 3.95, P 4.09, T 3.61, S 4.44, M 3.85, V 3.65, W 1.68
P16: G 4.28, H 4.06, E 4.29, F 4.79, A 3.89, L 4.03, Q 4.14, S 3.75, N 4.12, Y 3.62, T 4.13, M 4, I 3.65, V 4.6, K 4.19, W 2.78, C 3.7, D 4.4, R 3.95
Y18: H 4.31, F 3.89, D 4.47, C 4.98, M 4.15, V 4.24, I 3.96, K 2.85, A 4.08, W 3.63, N 4.63, Q 4.54, E 4.65, S 4.68, P 5.06, T 4.7, L 3.87, R 5.1, G 3.52
T17: P 4.46, G 4.02, M 3.77, Y 2.87, A 4.56, H 4.41, V 4, R 4.34, Q 4.3, L 3.6, K 4.69, E 4.43, F 3.45, S 4.79, D 3.7, I 3.7, N 4.75, C 3.8, W 1.94
A21: W 4.21, C 3.74, G 4.29, S 4.1, V 3.89, Y 3.67, D 4.34, E 4.97, T 3.67, L 3.38, N 3.45, H 4.56, R 3.43, M 4.7, K 3.26, P 4.04, F 4.18, I 3.85
E20: V 3.48, F 3.39, C 3.33, R 3.63, T 3.87, K 4.69, N 4.41, A 3.93, H 3.97, Y 3.52, M 3.55, Q 3.61, S 3.56, L 3.5, D 4.62, I 2.88, G 4.26, W 2.9
